PMC10397247
Each block holds one binder with its values, some of them ahead of it.

Experiments:
Experiment in all cases: two-hybrid library CCmax;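 also: natural log of median RNA to DNA barcode read ratio; higher means stronger binding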
[1] = molecular target: T1, 4H2949-AA; details: mean of both orientations
T1 chain: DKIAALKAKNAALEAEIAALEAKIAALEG

[2] = molecular target: T2, 4H2642-AA; details: mean of both orientations
T2 chain: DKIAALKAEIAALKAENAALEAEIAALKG

[3] = molecular target: T3, 4H993-AA; details: mean of both orientations
T3 chain: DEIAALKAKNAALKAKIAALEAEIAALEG

[4] = molecular target: T4, 4H1867-AA; details: mean of both orientations
T4 chain: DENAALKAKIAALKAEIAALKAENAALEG

[5] = molecular target: T5, 4H1153-AA; details: mean of both orientations
T5 chain: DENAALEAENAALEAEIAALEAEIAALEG

[6] = molecular target: T6, 4H2575-AA; details: mean of both orientations
T6 chain: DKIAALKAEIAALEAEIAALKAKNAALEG

[7] = molecular target: T7, 4H1552-AA; details: mean of both orientations
T7 chain: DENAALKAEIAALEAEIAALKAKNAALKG

[8] = molecular target: T8, 4H717-AA; details: mean of both orientations
T8 chain: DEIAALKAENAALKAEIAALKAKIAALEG

[9] = molecular target: T9, 4H3844-AA; details: mean of both orientations
T9 chain: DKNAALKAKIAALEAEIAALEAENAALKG

[10] = molecular target: T10, 4H794-AA; details: mean of both orientations
T10 chain: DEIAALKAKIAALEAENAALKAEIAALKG

[11] = molecular target: T11, 4H429-AA; details: mean of both orientations
T11 chain: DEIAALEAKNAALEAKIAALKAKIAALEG

[12] = molecular target: T12, 4H2944-AA; details: mean of both orientations
T12 chain: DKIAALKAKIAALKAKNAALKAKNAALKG

[13] = molecular target: T13, 4H780-AA; details: mean of both orientations
T13 chain: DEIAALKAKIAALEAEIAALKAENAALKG

[14] = molecular target: T14, 4H566-AA; details: mean of both orientations
T14 chain: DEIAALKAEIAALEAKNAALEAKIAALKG

[15] = molecular target: T15, 4H1636-AA; details: mean of both orientations
T15 chain: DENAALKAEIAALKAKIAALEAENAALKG

[16] = molecular target: T16, 4H3655-AA; details: mean of both orientations
T16 chain: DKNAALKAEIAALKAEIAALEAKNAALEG

[17] = molecular target: T17, 4H234-AA; details: mean of both orientations
T17 chain: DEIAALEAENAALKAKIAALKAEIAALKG

[18] = molecular target: T18, 4H2393-AA; details: mean of both orientations
T18 chain: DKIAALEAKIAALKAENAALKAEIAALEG

[19] = molecular target: T19, 4H335-AA; details: mean of both orientations
T19 chain: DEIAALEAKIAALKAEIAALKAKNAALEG

[20] = molecular target: T20, 4H3427-AA; details: mean of both orientations
T20 chain: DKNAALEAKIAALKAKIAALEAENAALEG

[21] = molecular target: T21, 4H122-AA; details: mean of both orientations
T21 chain: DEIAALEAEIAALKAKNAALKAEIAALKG

[22] = molecular target: T22, 4H317-AA; details: mean of both orientations
T22 chain: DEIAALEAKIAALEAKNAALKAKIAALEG

[23] = molecular target: T23, 4H1352-AA; details: mean of both orientations
T23 chain: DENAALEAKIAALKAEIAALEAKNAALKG

[24] = molecular target: T24, 4H678-AA; details: mean of both orientations
T24 chain: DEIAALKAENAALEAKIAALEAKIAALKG

[25] = molecular target: T25, 4H2617-AA; details: mean of both orientations
T25 chain: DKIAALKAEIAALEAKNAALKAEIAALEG

[26] = molecular target: T26, 4H881-AA; details: mean of both orientations
T26 chain: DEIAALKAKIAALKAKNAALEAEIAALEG

[27] = molecular target: T27, 4H2466-AA; details: mean of both orientations
T27 chain: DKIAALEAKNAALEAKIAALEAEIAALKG

[28] = molecular target: T28, 4H2190-AA; details: mean of both orientations
T28 chain: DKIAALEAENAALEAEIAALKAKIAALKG

[29] = molecular target: T29, 4H906-AA; details: mean of both orientations
T29 chain: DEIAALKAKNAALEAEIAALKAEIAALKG

[30] = molecular target: T30, 4H2277-AA
T30 chain: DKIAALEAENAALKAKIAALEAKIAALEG

[31] = molecular target: T31, 4H454-AA; details: mean of both orientations
T31 chain: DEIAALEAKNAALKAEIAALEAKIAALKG

[32] = molecular target: T32, 4H2754-AA; details: mean of both orientations
T32 chain: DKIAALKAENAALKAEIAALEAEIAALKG

[33] = molecular target: T33, 4H2505-AA; details: mean of both orientations
T33 chain: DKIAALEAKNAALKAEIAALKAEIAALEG

[34] = molecular target: T34, 4H2837-AA; details: mean of both orientations
T34 chain: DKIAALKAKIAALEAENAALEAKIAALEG

[35] = molecular target: T35, 4H342-AA; details: mean of both orientations
T35 chain: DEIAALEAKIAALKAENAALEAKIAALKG

[36] = molecular target: T36, 4H3343-AA; details: mean of both orientations
T36 chain: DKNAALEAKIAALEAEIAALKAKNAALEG

[37] = molecular target: T37, 4H605-AA; details: mean of both orientations
T37 chain: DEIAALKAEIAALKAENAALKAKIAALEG

[38] = molecular target: T38, 4H3921-AA; details: mean of both orientations
T38 chain: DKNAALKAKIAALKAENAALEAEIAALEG

[39] = molecular target: T39, 4H2078-AA; details: mean of both orientations
T39 chain: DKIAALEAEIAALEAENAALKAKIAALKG

[40] = molecular target: T40, 4H1324-AA; details: mean of both orientations
T40 chain: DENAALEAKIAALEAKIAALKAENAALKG

[41] = molecular target: T41, 4H1086-AA
T41 chain: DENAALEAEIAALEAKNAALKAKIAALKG

[42] = molecular target: T42, 4H3627-AA; details: mean of both orientations
T42 chain: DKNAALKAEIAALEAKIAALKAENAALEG

[43] = molecular target: T43, 4H3112-AA; details: mean of both orientations
T43 chain: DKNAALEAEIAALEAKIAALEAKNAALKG

[44] = molecular target: T44, 4H2354-AA; details: mean of both orientations
T44 chain: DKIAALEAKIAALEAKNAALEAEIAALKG

[45] = molecular target: T45, 4H1135-AA; details: mean of both orientations
T45 chain: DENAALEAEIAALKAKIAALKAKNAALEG

[46] = molecular target: T46, 4H2729-AA; details: mean of both orientations
T46 chain: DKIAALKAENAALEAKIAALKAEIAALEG

[47] = molecular target: T47, 4H2165-AA; details: mean of both orientations
T47 chain: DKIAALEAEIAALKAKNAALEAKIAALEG

[48] = molecular target: T48, 4H3625-AA; details: mean of both orientations
T48 chain: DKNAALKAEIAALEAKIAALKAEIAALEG

[49] = molecular target: T49, 4H337-AA; details: mean of both orientations
T49 chain: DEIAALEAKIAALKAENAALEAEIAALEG

[50] = molecular target: T50, 4H43-AA; details: mean of both orientations
T50 chain: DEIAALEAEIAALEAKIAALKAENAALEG

[51] = molecular target: T51, 4H3587-AA; details: mean of both orientations
T51 chain: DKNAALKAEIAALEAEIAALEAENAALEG

[52] = molecular target: T52, 4H1070-AA
T52 chain: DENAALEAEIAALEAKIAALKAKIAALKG

[53] = molecular target: T53, 4H_BCR; details: mean of both orientations
T53 chain: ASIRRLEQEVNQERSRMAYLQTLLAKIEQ

[54] = molecular target: T54, 4H510-AA; details: mean of both orientations
T54 chain: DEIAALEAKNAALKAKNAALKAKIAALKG

[55] = molecular target: T55, O13-AA; details: mean of both orientations
T55 chain: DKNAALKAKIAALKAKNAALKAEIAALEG

[56] = molecular target: T56, 4H2736-AA; details: mean of both orientations
T56 chain: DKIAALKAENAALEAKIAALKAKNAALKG

[57] = molecular target: T57, 4H451-AA; details: mean of both orientations
T57 chain: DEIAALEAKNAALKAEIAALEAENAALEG

[58] = molecular target: T58, 4H1193-AA; details: mean of both orientations
T58 chain: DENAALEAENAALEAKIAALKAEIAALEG

[59] = molecular target: T59, 4H1392-AA; details: mean of both orientations
T59 chain: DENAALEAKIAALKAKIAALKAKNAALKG

[60] = molecular target: T60, O11-AA
T60 chain: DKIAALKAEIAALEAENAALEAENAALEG

[61] = molecular target: GCN2_T
[62] = molecular target: T61, 4H3049-AA; details: mean of both orientations
T61 chain: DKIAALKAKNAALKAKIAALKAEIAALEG

[63] = molecular target: T62, 4H3590-AA; details: mean of both orientations
T62 chain: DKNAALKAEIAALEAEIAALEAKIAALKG

[64] = molecular target: T63, O14-AA; details: mean of both orientations
T63 chain: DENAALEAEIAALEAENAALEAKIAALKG

[65] = molecular target: T64, 4H3905-AA; details: mean of both orientations
T64 chain: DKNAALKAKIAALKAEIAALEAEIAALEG

[66] = molecular target: T65, 4H384-AA
T65 chain: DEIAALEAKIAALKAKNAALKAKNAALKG

[67] = molecular target: T66, 4H2622-AA; details: mean of both orientations
T66 chain: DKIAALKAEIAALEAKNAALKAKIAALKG

[68] = molecular target: T67, 4H2705-AA; details: mean of both orientations
T67 chain: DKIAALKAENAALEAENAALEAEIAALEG

[69] = molecular target: 4H_GCN4; details: mean of both orientations
Chain of 4H_GCN4 (chain, as listed by the source): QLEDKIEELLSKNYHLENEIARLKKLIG

[70] = molecular target: T68, 4H1385-AA; details: mean of both orientations
T68 chain: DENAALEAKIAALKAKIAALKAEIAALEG

[71] = molecular target: T69, 4H1350-AA; details: mean of both orientations
T69 chain: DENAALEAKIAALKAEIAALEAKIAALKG

[72] = molecular target: T70, 4H4038-AA; details: mean of both orientations
T70 chain: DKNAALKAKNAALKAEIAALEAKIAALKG

[73] = molecular target: T71, 4H2888-AA; details: mean of both orientations
T71 chain: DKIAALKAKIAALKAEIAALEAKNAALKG

[74] = molecular target: T72, 4H134-AA; details: mean of both orientations
T72 chain: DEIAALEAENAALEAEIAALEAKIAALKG

interaction score [1]: 0.739
interaction score [2]: 1.79
interaction score [3]: -0.479
interaction score [4]: -1.02
interaction score [5]: -0.756
interaction score [6]: 0.522
interaction score [7]: -0.495
interaction score [8]: -1.78
interaction score [9]: -0.082
interaction score [10]: -0.327
interaction score [11]: 0.612
interaction score [12]: -1.29
interaction score [13]: -1.37
interaction score [14]: -0.902
interaction score [15]: -1.62
interaction score [16]: -0.935
interaction score [17]: -1.17
interaction score [18]: 1.89
interaction score [19]: -1.27
interaction score [20]: -0.568
interaction score [21]: -0.74
interaction score [22]: -0.992
interaction score [23]: -0.965
interaction score [24]: -0.364
interaction score [25]: 0.841
interaction score [26]: 1.89
interaction score [27]: -1.65
interaction score [28]: 1.78
interaction score [29]: -1.8
interaction score [30]: -2.16
interaction score [31]: -0.949
interaction score [32]: 0.514
interaction score [33]: -1.28
interaction score [34]: 2.25
interaction score [35]: 1.88
interaction score [36]: -1.72
interaction score [37]: -0.771
interaction score [38]: 2.16
interaction score [39]: -1.42
interaction score [40]: -0.552
interaction score [41]: -1.1
interaction score [42]: -0.932
interaction score [43]: -1.57
interaction score [44]: -0.946
interaction score [45]: -0.938
interaction score [46]: 1.34
interaction score [47]: -1.24
Binder: DENAALEAEIAALEAKNAALKAKIAALKG [4H1086-AA]

interaction score [48]: 1.73
interaction score [49]: 0.472
interaction score [50]: 1.94
interaction score [51]: 1.56
interaction score [52]: 2.05
interaction score [53]: -1.54
interaction score [54]: -1.68
interaction score [55]: -0.784
interaction score [56]: -0.965
interaction score [57]: -1.11
interaction score [58]: -0.64
interaction score [59]: -0.733
interaction score [60]: 1.22
interaction score [61]: -0.746
interaction score [62]: 0.86
interaction score [63]: 2.25
interaction score [64]: 0.236
interaction score [65]: 2.23
interaction score [66]: -0.364
interaction score [67]: 1.21
interaction score [68]: -1.19
interaction score [69]: -1.5
interaction score [70]: 1.6
interaction score [71]: 1.96
interaction score [72]: 1.53
interaction score [73]: 1.51
interaction score [74]: 1.2
Binder: DENAALEAEIAALEAKIAALKAKIAALKG [4H1070-AA]
